Biological target: RHDV VPg fused to the VN155 (I152L) fragment for BiFC (Rabbit hemorrhagic disease virus (RHDV) strain CHA/JX/97)
Assay: split reporter (BiFC, NanoBiT); BiFC in RK-13 cells, pVPg-VN and peIF4E-VC; green fluorescence quantified by flow cytometry 48 h after transfection

## eIF4E fused to the VC155 fragment for BiFC (from UniProt P29338 1-217) (natural protein)
  BiFC signal-to-noise (ratio between the treatment and control groups): > 3
